# Measurements: patent US20220017636A1 (Amgen, published 2022)
# Experiments:
# Assay in all cases: flow cytometry, peptide-loaded T2 cells;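 also: binding of single-chain Fv antibody constructs, raised in XenoMouse, to peptide-pulsed T2 cells measured by flow cytometry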
# [1] = target: T1, ADF peptide complexed with HLA-A*02:01 on T2 cells (human)
# T1 construct: whole, on cells
# Procedure: (§1) Binding of pMAGE-HLA scFv constructs, generated from the XenoMouse, on peptide loaded T2 cells was evaluated by flow cytometry.
# [2] = target: T2, MAGEB2 peptide … (SEQ ID NO: 1) complexed with HLA-A*02:01 on the cell surface (human)
# T2 construct: whole, on cells; also called pMAGE-HLA; MAGEB2 pMHC
# Procedure: as §1
# [3] = target: T3, DPYSL4 peptide complexed with HLA-A*02:01 on T2 cells (human)
# T3 construct: whole, on cells
# Procedure: as §1
# [4] = target: T4, CNDP2 peptide complexed with HLA-A*02:01 on T2 cells (human)
# T4 construct: whole, on cells; also called CNPD2
# Procedure: as §1
# [5] = target: T5, KEA peptide complexed with HLA-A*02:01 on T2 cells (human)
# T5 construct: whole, on cells
# Procedure: as §1
# [6] = target: T6, SLK peptide complexed with HLA-A*02:01 on T2 cells (human)
# T6 construct: whole, on cells
# Procedure: as §1
# [7] = target: T7, STXBP5 peptide complexed with HLA-A*02:01 on T2 cells (human)
# T7 construct: whole, on cells
# Procedure: as §1
# [8] = target: T8, COX14 peptide complexed with HLA-A*02:01 on T2 cells (human)
# T8 construct: whole, on cells
# Procedure: as §1
# [9] = target: T9, MYOF peptide complexed with HLA-A*02:01 on T2 cells (human)
# T9 construct: whole, on cells
# Procedure: as §1
# [10] = target: T10, MB peptide complexed with HLA-A*02:01 on T2 cells (human)
# T10 construct: whole, on cells
# Procedure: as §1
binder,measurement,setting,value
"18089-D12 (scFv, scFv in bacterial lysate, detected with anti-Flag M2) scFv: EVQLLESGGGVVQPGRSLRLSCAASGFTFSTYGMHWVRQAPGKGLEWVAVISYDGSNKYYADSVKGRFTISRDDSKNTLYLQMNSLRAEDTAVYYCARGQLLTGYWGQGTLVTVSSGGGGSGGGGSGGGGSELVMTQSPSSLSASVGDRVTITCRASQGISNYLAWYQQKPGKVPKLLIYAASTLQSGVPSRFSGSGSGTDFTLTISSLQPEDVATYYCQKYNSAPFTFGPGTKVEIK",Signal/background,[1],1.1
same,Signal/background,[2],176
same,Signal/background,[3],1.1
same,Signal/background,[4],1
same,Signal/background,[5],1
same,Signal/background,[6],1.3
same,Signal/background,[7],1
same,Signal/background,[8],1.1
same,Signal/background,[9],1.1
same,Signal/background,[10],1.1
"18182-B5 (scFv, scFv in bacterial lysate, detected with anti-Flag M2) scFv: EVQLLESGGGLVQPGGSLRLSCAASGFTFSSHAMSWVRQAPGKGLEWVSAISGSGGGTYYADSVKGRFTISRDNSKNTLYLQMNSLRAEDTAVYYCATGKGVHLGFDYWGQGTLVTVSSGGGGSGGGGSGGGGSELVLTQPPSVSVAPGQTARITCGGNNIGSKSVHWYQQKPGQAPVLVVYDDNDRPSGIPERFSGSNFGNTATLIISRVEAGDEADYYCQVWDSSSDHVVFGGGTKLTVL",Signal/background,[1],0.9
same,Signal/background,[2],560
same,Signal/background,[3],1
same,Signal/background,[4],1
same,Signal/background,[5],0.9
same,Signal/background,[6],1
same,Signal/background,[7],1
same,Signal/background,[8],1
same,Signal/background,[9],1
same,Signal/background,[10],1
"18182-A4 (scFv, scFv in bacterial lysate, detected with anti-Flag M2) scFv: EVQLLESGGGVVQPGRSLRLSCAASGFTFSSYAMTWVRQAPGQGLEWVSSISGSGGGTYYAASVKGRFTISRDNSKNTLYLQMNSLRAEDTAVYYCATGKGVHLGFDYWGQGTLVTVSSGGGGSGGGGSGGGGSELVLTQPPSVSVAPGQTARITCGGNNIGSKSVHWYQQKPGQAPVLVVYDDNDRPSGIPERFSGSNFGNTATLIISRVAAGDEADYYCQVWDSSSDHVVFGGGTKLTVL",Signal/background,[1],1.1
same,Signal/background,[2],202
same,Signal/background,[3],1
same,Signal/background,[4],0.8
same,Signal/background,[5],0.9
same,Signal/background,[6],1
same,Signal/background,[7],0.8
same,Signal/background,[8],0.9
same,Signal/background,[9],1
same,Signal/background,[10],1
"18182-B12 (scFv, scFv in bacterial lysate, detected with anti-Flag M2) scFv: EVQLLESGGGLVQPGGSLRLSCAASGFTFSSYAMSWVRQAPGKGLEWVSAISGSGGGTYYADSVKGRFTISRDNSKNTLYLQMSSLRAEDTAVYYCATGKGVHLGFDYWGQGTLVTVSSGGGGSGGGGSGGGGSELVLTQPPSVSVAPGQTARITCGGNNIGSKSVHWHQQKPGQAPVLVVYDDNDRPSGIPERFSGSNSGNTATLTISRVEAGDEADYYCQVWDYSSDHVVFGGGTKLTVL",Signal/background,[1],1
same,Signal/background,[2],208
same,Signal/background,[3],1
same,Signal/background,[4],0.8
same,Signal/background,[5],0.9
same,Signal/background,[6],0.9
same,Signal/background,[7],0.9
same,Signal/background,[8],1
same,Signal/background,[9],0.8
same,Signal/background,[10],0.8
"18182-E1 (scFv, scFv in bacterial lysate, detected with anti-Flag M2) scFv: EVQLLESGGGLVQPGGSLRLSCAASGFTFSSHAMSWVRQAPGKGLEWVSAISGSGGGTYNADSVKGRFTISRDNSKNTLYLQMNSLRAEDTAAYYCVTGKGVHLGFDYWGQGTLVTVSSGGGGSGGGGSGGGGSELVLTQPPSVSVAPGQTARITCGGNNIGSKSVHWYQQKPGQAPVMVVYDDNDRPSGIPERFSGSNSGNTATLTISRVEAGDEADYYCQVWDSSSDHVVFGGGTKLTVL",Signal/background,[1],1
same,Signal/background,[2],193
same,Signal/background,[3],0.9
same,Signal/background,[4],0.9
same,Signal/background,[5],0.9
same,Signal/background,[6],1
same,Signal/background,[7],1
same,Signal/background,[8],0.8
same,Signal/background,[9],0.9
same,Signal/background,[10],0.9
"18182-E5 (scFv, scFv in bacterial lysate, detected with anti-Flag M2) scFv: EVQLLESGGGLVQPGGSLRLSCAASGFTFSSYAMSWVRQAPGKGLEWVSTISGSGGGTYYADSVKGRFTISRDNSKNTLYLQMNSLRAEDTAVYYCATGKGVHLGFDYWGQGTLVTVSSGGGGSGGGGSGGGGSELVLTQPPSVSVAPGQTARITCGGNNIGSKSVHWHQQKPGQAPVLVVYDDNDRPSGIPERFSGSNSGNTATLTISRVEAGDEADYYCQVWDYSSDHVVFGGGTKLTVL",Signal/background,[1],1
same,Signal/background,[2],205
same,Signal/background,[3],1
same,Signal/background,[4],0.8
same,Signal/background,[5],0.9
same,Signal/background,[6],1
same,Signal/background,[7],0.8
same,Signal/background,[8],0.9
same,Signal/background,[9],0.9
same,Signal/background,[10],0.9
"18182-E6 (scFv, scFv in bacterial lysate, detected with anti-Flag M2) scFv: EVQLLESGGGLVQPGGSLRLSCAASGFTFSSYAMSWVRQAPGKGLEWVSAISGSGGGTYYADSVKGRFTISRDNSKNTLYLQMNSLRAEDTAVYYCATGKGVHLNFDYWGQGTLVTVSSGGGGSGGGGSGGGGSELVLTQPSSVSVAPGQTARITCGGNNIGSKSVHWYQQKPGQAPVLVVYDDNDRPSGIPERFSGSNFGNTATLIISRVAAGDEADYYCQVWDSSSDHVVFGGGTKLTVL",Signal/background,[1],1
same,Signal/background,[2],431
same,Signal/background,[3],0.9
same,Signal/background,[4],1
same,Signal/background,[5],0.9
same,Signal/background,[6],1
same,Signal/background,[7],0.9
same,Signal/background,[8],1
same,Signal/background,[9],1
same,Signal/background,[10],0.9
"18182-E10 (scFv, scFv in bacterial lysate, detected with anti-Flag M2) scFv: EVQLLESGGGLVQPGGSLRLSCAASGFTFSSHAMSWVRQAPGQGLEWVSSISGSGGGTYYAASVKGRFTISRDNSKNTLYLQMNSLRAEDTAVYYCATGKGVHLNFDYWGQGTLVTVSSGGGGSGGGGSGGGGSELALTQPASASVAPGQTARITCGGNNIGSKSVHWHQQKPGQAPVLVVYDDNDRPSGIPERFSGSNSGNTATLTISRVEAGDEADFYCQVWDSSSDHVVFGGGTKLTVL",Signal/background,[1],0.9
same,Signal/background,[2],273
same,Signal/background,[3],0.9
same,Signal/background,[4],0.8
same,Signal/background,[5],0.8
same,Signal/background,[6],1
same,Signal/background,[7],0.8
same,Signal/background,[8],0.9
same,Signal/background,[9],0.9
same,Signal/background,[10],0.9
"18182-G2 (scFv, scFv in bacterial lysate, detected with anti-Flag M2) scFv: EVQLLESGGGLVQPGGSLRLSCAASGFTFSSHAMSWVRQAPGKGLEWVSAISGSGGGTYNADSVKGRFTISRDNSKNTLYLQMNSLRAEDTAAYYCVTGKGVHLGFDYWGQGTLVTVSSGGGGSGGGGSGGGGSELVLTQPPSVSVAPGQTARITCGGNNIGSKSVHWYQQKPGQAPVMVVYDDNDRPSGIPERFSGSNSGNTATLTISRVEAGDEADYYCQVWDSSSDHVIFGGGTKLTVL",Signal/background,[1],1
same,Signal/background,[2],320
same,Signal/background,[3],1.1
same,Signal/background,[4],1
same,Signal/background,[5],0.9
same,Signal/background,[6],1
same,Signal/background,[7],0.9
same,Signal/background,[8],0.9
same,Signal/background,[9],1
same,Signal/background,[10],1
"18182-G6 (scFv, scFv in bacterial lysate, detected with anti-Flag M2) scFv: EVQLLESGGGLVQPGGSLRLSCAASGFTFSSYAMSWVRQAPGKGLEWVSAISGSGGGTYYADSVKGRFTISRDNSKNTLYLQMNSLRAEDTAAYYCVTGKGVHLGFDYWGQGTLVTVSSGGGGSGGGGSGGGGSELVLTQPPSVSVAPGQTARITCGGNNIGSKSVHWHQQKPGQSPVLVIYDDNDRPSGIPERFSGFNSGNTATLTISRVEAGDEADYYCQVWDSSSDHVVFGGGTKLTVL",Signal/background,[1],1
same,Signal/background,[2],365
same,Signal/background,[3],1
same,Signal/background,[4],1
same,Signal/background,[5],1
same,Signal/background,[6],1
same,Signal/background,[7],1
same,Signal/background,[8],1
same,Signal/background,[9],1
same,Signal/background,[10],1
"18182-G8 (scFv, scFv in bacterial lysate, detected with anti-Flag M2) scFv: EVQLLESGGGLVKPGGSLRLSCAASGFTFSSYAMNWVRQAPGKGLEWVSAISGSGGGTYYADSGKGRFTISRDNSKNTLYLQMNSLRAEDTAVYYCATGKGVHLNFDYWGQGTLVTVSSGGGGSGGGGSGGGGSELVLTQPPSVSVAPGQTARITCGGNNIGSKSVHWYQQKPGQAPVMVVYDDNDRPSGIPERFSGSNSGNTATLTISRVEAGDEADYYCQVWDSSSDHVVFGGGTKLTVL",Signal/background,[1],1
same,Signal/background,[2],289
same,Signal/background,[3],1
same,Signal/background,[4],0.9
same,Signal/background,[5],0.9
same,Signal/background,[6],1.1
same,Signal/background,[7],1
same,Signal/background,[8],0.9
same,Signal/background,[9],1
same,Signal/background,[10],1.1
"18182-H9 (scFv, scFv in bacterial lysate, detected with anti-Flag M2) scFv: EVQLLESGGGLVQPGGSLRLSCAASGFTFSSHAMSWVRQAPGKGLEWVSAISGSGGGTYYADSVKARFTISRDNSKNTLYLQMNSLRAEDTAVYYCATGKGVHLGFDYWGQGTLVTVSSGGGGSGGGGSGGGGSELVLTQPPSVSVAPGQTARITCGGNNIGSKSVHWHQQKPGQAPVLVVYDDNDRPSGIPERFSGSNSGNTATLTISRVEAGDEADFYCQVWDSSSDHVVFGGGTKLTVL",Signal/background,[1],1
same,Signal/background,[2],481
same,Signal/background,[3],1.1
same,Signal/background,[4],1
same,Signal/background,[5],1
same,Signal/background,[6],1.2
same,Signal/background,[7],1.1
same,Signal/background,[8],0.9
same,Signal/background,[9],1.1
same,Signal/background,[10],1
